These results are taken from patent US20250075002A1.

The target of assay [1] is MUC1 as expressed on normal activated human T cells (human) (UniProt P15941). In words: FACS, PHA-L-activated human PBMC, live αβTCR+ gate, Donor 191271003C; antibody 10 µg/mL by paragraph 182. (In flow cytometry, cells or beads pass a laser one at a time.)
For assay [2] the target is unchanged. The experiment in a line: FACS, PHA-L-activated human PBMC, live αβTCR+ gate, Donor 191271715C; antibody 10 µg/mL by paragraph 182.
For assay [3] the target is unchanged. The experiment in a line: FACS, PHA-L-activated human PBMC, live αβTCR+ gate, Donor 3011029; antibody 10 µg/mL by paragraph 182.
Assay [4] shares this target. In words: FACS, PHA-L-activated human PBMC, live αβTCR+ gate, Donor 191180405C; antibody 10 µg/mL by paragraph 182.
Assay [5] shares this target. The experiment in a line: FACS, PHA-L-activated human PBMC, live αβTCR+ gate, Donor 3009223; antibody 10 µg/mL by paragraph 182.
For assay [6] the target is unchanged. The experiment in a line: FACS, PHA-L-activated human PBMC, live αβTCR+ gate, Donor 190980805C; antibody 10 µg/mL by paragraph 182.
The target is the same in assay [7]. The experiment in a line: FACS, PHA-L-activated human PBMC, live αβTCR+ gate, Donor 191180405C; concentration of the isotype control not told.
Assay [8] has the same target. In words: FACS, PHA-L-activated human PBMC, live αβTCR+ gate, Donor 3009223; concentration of the isotype control not told.
The target is the same in assay [9]. The experiment in a line: FACS, PHA-L-activated human PBMC, live αβTCR+ gate, Donor 190980805C; concentration of the isotype control not told.
The target is the same in assay [10]. In words: FACS, PHA-L-activated human PBMC, live αβTCR+ gate, Donor 3011029; concentration of the isotype control not told.
The target is the same in assay [11]. The experiment in a line: FACS, PHA-L-activated human PBMC, live αβTCR+ gate, Donor 191271715C; concentration of the isotype control not told.
Assay [12] has the same target. In words: FACS, PHA-L-activated human PBMC, live αβTCR+ gate, Donor 191271003C; concentration of the isotype control not told.
The target is the same in assay [13]. In words: FACS, PHA-L-activated human PBMC, live αβTCR+ gate, Donor 191271715C; concentration of the isotype control not told. This is another data set of the same source.
For assay [14] the target is unchanged. The experiment in a line: FACS, PHA-L-activated human PBMC, live αβTCR+ gate, Donor 191180405C; concentration of the isotype control not told. This is another data set of the same source.
Assay [15] shares this target. In words: FACS, PHA-L-activated human PBMC, live αβTCR+ gate, Donor 3009223; concentration of the isotype control not told. The source holds these as a separate data set.
For assay [16] the target is unchanged. In words: FACS, PHA-L-activated human PBMC, live αβTCR+ gate, Donor 3011029; concentration of the isotype control not told. The source holds these as a separate data set.
Assay [17] shares this target. In words: FACS, PHA-L-activated human PBMC, live αβTCR+ gate, Donor 190980805C; concentration of the isotype control not told. This is another data set of the same source.
Assay [18] has the same target. In words: FACS, PHA-L-activated human PBMC, live αβTCR+ gate, Donor 191271003C; concentration of the isotype control not told. This is another data set of the same source.
For assay [19], the target named is human CD16B (NA1) on NK92mi cells (human) (UniProt O75015). In words: flow cytometry on NK92mi/CD16B (NA1) cells; control.
Assay [20] deals with human CD16A (V158) on NK92mi cells (human) (UniProt P08637). The experiment in a line: flow cytometry on NK92mi/CD16A cells (V158 by paragraph 201); control.
Assay [21] concerns the target human CD16B (NA2) on NK92mi cells (human) (UniProt O75015). The experiment in a line: flow cytometry on NK92mi/CD16B (NA2) cells; control.

MUC1 as expressed on normal activated human T cells (human), sequence (P15941 24-1255): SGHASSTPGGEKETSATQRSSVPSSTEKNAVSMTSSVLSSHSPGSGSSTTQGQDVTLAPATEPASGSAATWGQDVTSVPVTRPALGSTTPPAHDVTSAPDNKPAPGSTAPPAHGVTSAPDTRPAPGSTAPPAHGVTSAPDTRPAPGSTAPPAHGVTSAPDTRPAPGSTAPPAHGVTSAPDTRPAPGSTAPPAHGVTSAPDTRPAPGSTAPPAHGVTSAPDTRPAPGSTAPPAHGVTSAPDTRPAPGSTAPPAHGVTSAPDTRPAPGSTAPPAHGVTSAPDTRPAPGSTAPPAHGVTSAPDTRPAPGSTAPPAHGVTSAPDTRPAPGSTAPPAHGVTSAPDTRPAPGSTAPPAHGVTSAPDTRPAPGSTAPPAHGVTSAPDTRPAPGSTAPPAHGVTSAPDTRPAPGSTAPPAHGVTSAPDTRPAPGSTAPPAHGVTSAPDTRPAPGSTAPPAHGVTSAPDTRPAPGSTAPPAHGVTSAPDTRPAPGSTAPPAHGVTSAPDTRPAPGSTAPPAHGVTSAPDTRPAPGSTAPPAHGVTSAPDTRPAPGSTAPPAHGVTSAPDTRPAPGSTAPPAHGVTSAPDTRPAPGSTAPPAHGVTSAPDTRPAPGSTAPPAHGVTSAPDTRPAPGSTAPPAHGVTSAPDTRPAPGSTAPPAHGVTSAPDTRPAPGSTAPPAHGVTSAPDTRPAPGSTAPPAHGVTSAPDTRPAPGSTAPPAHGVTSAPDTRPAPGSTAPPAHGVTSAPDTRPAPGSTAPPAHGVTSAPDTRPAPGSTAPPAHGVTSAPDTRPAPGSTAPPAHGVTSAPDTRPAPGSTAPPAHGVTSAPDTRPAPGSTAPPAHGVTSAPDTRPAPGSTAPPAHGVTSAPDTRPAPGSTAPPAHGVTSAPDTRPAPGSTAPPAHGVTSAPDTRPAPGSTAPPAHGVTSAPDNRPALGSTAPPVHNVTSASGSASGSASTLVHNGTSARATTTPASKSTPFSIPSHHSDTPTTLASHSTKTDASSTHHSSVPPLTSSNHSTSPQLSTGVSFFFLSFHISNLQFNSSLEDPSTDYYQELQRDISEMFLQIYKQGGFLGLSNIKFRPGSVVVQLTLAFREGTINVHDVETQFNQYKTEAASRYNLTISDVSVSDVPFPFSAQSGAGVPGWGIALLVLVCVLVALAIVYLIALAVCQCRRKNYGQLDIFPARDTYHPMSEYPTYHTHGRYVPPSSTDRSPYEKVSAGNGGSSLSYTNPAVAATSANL
human CD16A (V158) on NK92mi cells (human), sequence (P08637 17-254 F176V limits assumed): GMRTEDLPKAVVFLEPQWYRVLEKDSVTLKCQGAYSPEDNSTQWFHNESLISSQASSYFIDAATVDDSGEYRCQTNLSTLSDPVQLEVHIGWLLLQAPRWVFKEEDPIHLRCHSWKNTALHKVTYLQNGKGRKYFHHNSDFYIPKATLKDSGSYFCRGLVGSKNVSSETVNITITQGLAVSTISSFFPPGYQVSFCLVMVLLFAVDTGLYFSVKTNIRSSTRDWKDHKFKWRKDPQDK
human CD16B (NA1) on NK92mi cells (human), sequence (O75015 other isoform, or with tags, fused parts or gaps limits assumed): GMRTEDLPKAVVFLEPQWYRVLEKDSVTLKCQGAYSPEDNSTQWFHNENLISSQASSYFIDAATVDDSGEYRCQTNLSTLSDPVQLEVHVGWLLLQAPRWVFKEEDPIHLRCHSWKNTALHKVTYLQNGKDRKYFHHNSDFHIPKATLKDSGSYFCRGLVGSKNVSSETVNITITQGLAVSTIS
human CD16B (NA2) on NK92mi cells (human), sequence (O75015 17-200 N65S limits assumed): as the sequence (O75015 other isoform, or with tags, fused parts or gaps limits assumed) above, with R20S, N49S, D66N, V90I counted along it

Turning to “16A (Biolegend, cat. #355608) (antibody)”, the values for the percent of αβTCR+ cells in the MUC1-positive gate (dashed box) in [1] and in [2] were 16.9% and 16.5%, respectively.

For the substance “HMFG1 (Abcam, cat. #ab215670) (antibody)”, the percent of αβTCR+ cells in the MUC1-positive gate (dashed box) stood at 23.2% in assay [3], 28.1% in assay [4], 10% in [5] and 28.2% in assay [6].

On to Isotype (antibody), for which the percent of αβTCR+ cells in the MUC1-positive gate (dashed box) in assay [7] is 2.49%; in [8], 1.17%; in [9], 0.15%; in assay [10], 0.26%; in assay [11] it was 0.04%; in assay [12], 0.11%. Besides, the percent of αβTCR+ cells in the MUC1-positive gate (dashed box) came to 1.04% in assay [13]; 0.29% in assay [14]; 0.05% in assay [15]; 0.36% in assay [16]; 1.86% in assay [17]; 0.91% in assay [18].

Usually EC50 stands for the concentration at which the effect is half-maximal. The low end stands for a more potent agent, the high end for a less potent agent. As to “Human IgG (control column of Tables 10-12) (antibody)”, the EC50 amounted to 10.3 µg/mL in assay [19], 0.0112 µg/mL in assay [20] and 0.314 µg/mL in [21]. In addition, the figures for the EMAX in assay [19], in [20] and in assay [21] were 7.46, 7.55 and 7.66, respectively.
